Results on 57 substances are retold here after the supplement of paper PMC12042874.

± gives the uncertainty stated by the source.

The data set is described as follows: amyloid nucleation score (Sup35N fusion, yeast selection) (log enrichment); library NNK1; higher = more nucleation; inactive = no reads after selection. Put shortly: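 The nucleation score is the log enrichment of output over input reads, calculated with DiMSum and centred on the mode score of non-aggregating sequences. Sequences with under 100 input reads were excluded. Reads came from Illumina sequencing of plasmid inserts from psi-negative yeast expressing Sup35N fused to peptides of 20 random codons, induced 24 hours with 100 μM copper sulfate and grown 7 days at 30°C without adenine and uracil.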
Substance ASYRKCLLCIRLNC registered an amyloid nucleation score of -0.753 ± 0.86.
To ATCLLAFMNFVSILERRSES belongs 1.86 ± 0.21; to ATLGDSEEYRLAFGLPLYCR, “inactive”; to ATLVTV, 0.759 ± 0.67.
The result for ATRRSCNLCLNLEFT reads “inactive”.
As for ATVDGRLIRDVSISCMGYDV, the amyloid nucleation score is -1.12 ± 2.4.
To ATWTAWRHVAHFWPWAHAKS belongs 0.936 ± 0.56; to ATYYFICMLIVQVHFCLFTM, -0.992 ± 0.5.
For AVITLQVHLLPEYFQAACIT, the amyloid nucleation score came out at 0.154 ± 0.38.
The result for AVLHLSDCERNYFTFTVNCG reads 6.207 ± 0.049; that for AVLSGRHWHTLYNSIALSEL, 0.869 ± 0.45.
Substance AVNSGRWLSVLRRRMESFLV yielded an amyloid nucleation score of 0.203 ± 0.42.
To AVPRAFIQKCSSITLSVYPM belongs -0.504 ± 0.99.
The result for AVRVLPSLNVGAGMRQVVFT reads 0.693 ± 0.5.
As for AVSMWLPNDLAMIRSYIGYY, the amyloid nucleation score is -0.475 ± 0.52.
In turn, AVWLVQSHPN yielded an amyloid nucleation score of 0.499 ± 0.58.
To AVWSRRTCWGLRKQSGVVLT belongs 0.036 ± 0.32.
To AWDFWTWVSSGVWWYDASVR belongs -0.398 ± 0.91.
To AWIPFVNTKTEWRVMDVNFD belongs 0.399 ± 0.62.
As for AWKGWFLMGYCGDRVMWDWR, the amyloid nucleation score was -0.131 ± 0.73.
The result for AWLSGVNVVSKSQGCFLWYG reads 0.551 ± 0.56; that for AWRSFIGYRMRVWIGYRGCY, 0.186 ± 0.95; that for AWSRLSVNPVVEENVMAIAL, 0.909 ± 0.69.
Turning to AWVRLYWAGR, the amyloid nucleation score came to 0.216 ± 0.68.
The result for AWWRCCGTLRTVRSAAKGLM reads -0.292 ± 1.1; that for AYAEIYERSEPGKDRHYLFM, -0.313 ± 0.74.
To AYAKLYKLSVLEPGRRVRMQ belongs 1.21 ± 0.57.
On to AYCRTNTNLRVLRIWNK, for which the amyloid nucleation score was -0.611 ± 0.53.
The result for AYLYQSSYLVRC reads 0.368 ± 0.36; that for AYPWRITFDAWISYV, 0.294 ± 0.76.
The result for AYSVRICLDFGKNG reads “inactive”.
To AYTEMNLRIVERYSMNTIRP belongs 2.14 ± 0.26; to CCFSSMNFIS, 4.04 ± 0.082; to CCGCWYIITKPYSNKVRKCA, 0.265 ± 0.73.
In turn, CCGMSGLSIGDGKNFMSGWV returned an amyloid nucleation score of 1.82 ± 0.45.
Turning to CCPRYMSIDSIDDRFYDKSF, the amyloid nucleation score result is “inactive”.
To CCPWEEHGICNEWRHRGSGT belongs -0.199 ± 0.46; to CCQRYCCTSGLANNWNRVYH, 0.812 ± 0.75; to CCRARDLIYLNITHAFFSIL, -0.289 ± 0.47.
To CCRVISIWG belongs 0.115 ± 0.54.
The result for CCSTSADIHSARNDVWSYSE reads -0.271 ± 0.88.
CCTNM had an amyloid nucleation score of 0.332 ± 0.22.
To CCYYTSVILVFDGRFDEMPY belongs 4.23 ± 0.07; to CDCTSRGK, -0.407 ± 1.5.
To CDFRIFRLSVPGTYYVCDWL belongs -0.018 ± 0.6.
To CDGRW belongs 0.186 ± 0.3; to CDNGPLLIVGVRHRTRACVT, 0.861 ± 0.38.
In turn, CDSKLHISSSC yielded an amyloid nucleation score of 0.313 ± 0.84.
The result for CDSTVMRGLYCGRVVYSLFV reads 0.721 ± 0.47; that for CEAMVLKGCAEAVQYRATDS, -0.23 ± 1.1.
As to CEEKCSHNVGTY, the amyloid nucleation score stood at 0.458 ± 0.55.
With CEFLIFTFRVSGEVLLQSRA, the amyloid nucleation score came to 0.265 ± 0.92.
The result for CEGMVIMVGRVLRTSYLYNL reads 0.001 ± 0.61; that for CETVG, “inactive”; that for CEWVWRGSVCSIWLLVLLPV, 0.09 ± 0.41.
To CFEDRYSLRCGM belongs -0.397 ± 0.34; to CFEFDPFMNMVKSCWCCQVA, -0.281 ± 0.93.
